“Also recorded” adds a separate entry of the source.
B1: SWAP3: FZD5,8-specific Wnt agonist (FZD5,8 and LRP6); heavy/light chains SEQ ID NO: 7 and 8 (antibody)
heavy: EVQLVESGGGLVQPGGSLRLSCAASGFTFTSYYISWVRQAPGKGLEWVAEISPYSGSTYYADSVKGRFTISADTSKNTAYLQMNSLRAEDTAVYYCALRARPPIRLHPRGSVMDYWGQGTLVTVSSGGGGSGGGGSGGGGSEVQLVESGGGLVQPGGSLRLSCAASGFNISYSYIHWVRQAPGKGLEWVASIYSSSGSTSYADSVKGRFTISADTSKNTAYLQMNSLRAEDTAVYYCARGAIDYWGQGTLVTVSSASTKGPSVFPLAPSSKSTSGGTAALGCLVKDYFPEPVTVSWNSGALTSGVHTFPAVLQSSGLYSLSSVVTVPSSSLGTQTYICNVNHKPSNTKVDKKVEPKSCDKTHTCPPCPAPEAAGGPSVFLFPPKPKDTLMISRTPEVTCVVVDVSHEDPEVKFNWYVDGVEVHNAKTKPREEQYNSTYRVVSVLTVLHQDWLNGKEYKCKVSNKALGAPIEKTISKAKGQPREPQVYTLPPSREEMTKNQVSLTCLVKGFYPSDIAVEWESNGQPENNYKTTPPVLDSDGSFFLYSKLTVDKSRWQQGNVFSCSVMHEALHNHYTQKSLSLSPGK
light: DIQMTQSPSSLSASVGDRVTITCRASQDVSTAVAWYQQKPGKAPKLLIYSASFLYSGVPSRFSGSGSGTDFTLTISSLQPEDFATYYCQQSYTTPPTFGQGTKVEIKGGGGSGGGGSGGGGSDIQMTQSPSSLSASVGDRVTITCRASQSVSSAVAWYQQKPGKAPKLLIYSASSLYSGVPSRFSGSRSGTDFTLTISSLQPEDFATYYCQQWYSSGHVLITFGQGTKVEIKRTVAAPSVFIFPPSDEQLKSGTASVVCLLNNFYPREAKVQWKVDNALQSGNSQESVTEQDSKDSTYSLSSTLTLSKADYEKHKVYACEVTHQGLSSPVTKSFNRGEC
B2: SWAP1: FZD-1,2,5,7,8-specific Wnt agonist; anti-FZD antibody with LRP6 binder; heavy/light chains SEQ ID NO: 3 and 4 (antibody)
heavy: EVQLVESGGGLVQPGGSLRLSCAASGFTFTSYYISWVRQAPGKGLEWVAEISPYSGSTYYADSVKGRFTISADTSKNTAYLQMNSLRAEDTAVYYCALRARPPIRLHPRGSVMDYWGQGTLVTVSSGGGGSGGGGSGGGGSEVQLVESGGGLVQPGGSLRLSCAASGFTFSHYTLSWVRQAPGKGLEWVSVISGDGSYTYYADSVKGRFTISSDNSKNTLYLQMNSLRAEDTAVYYCARNFIKYVFANWGQGTLVTVSSASTKGPSVFPLAPSSKSTSGGTAALGCLVKDYFPEPVTVSWNSGALTSGVHTFPAVLQSSGLYSLSSVVTVPSSSLGTQTYICNVNHKPSNTKVDKKVEPKSCDKTHTCPPCPAPEAAGGPSVFLFPPKPKDTLMISRTPEVTCVVVDVSHEDPEVKFNWYVDGVEVHNAKTKPREEQYNSTYRVVSVLTVLHQDWLNGKEYKCKVSNKALGAPIEKTISKAKGQPREPQVYTLPPSREEMTKNQVSLTCLVKGFYPSDIAVEWESNGQPENNYKTTPPVLDSDGSFFLYSKLTVDKSRWQQGNVFSCSVMHEALHNHYTQKSLSLSPGK
light: DIQMTQSPSSLSASVGDRVTITCRASQDVSTAVAWYQQKPGKAPKLLIYSASFLYSGVPSRFSGSGSGTDFTLTISSLQPEDFATYYCQQSYTTPPTFGQGTKVEIKGGGGSGGGGSGGGGSDIELTQPPSVSVAPGQTARISCSGDNIGSFYVHWYQQKPGQAPVLVIYDKSNRPSGIPERFSGSNSGNTATLTISGTQAEDEADYYCQSYANTLSLVFGGGTKLTVLGQPKAAPSVTLFPPSSEELQANKATLVCLISDFYPGAVTVAWKADSSPVKAGVETTTPSKQSNNKYAASSYLSLTPEQWKSHRSYSCQVTHEGSTVEKTVAPTECS
B3: SWAP2: FZD1,2,7-specific Wnt agonist; anti-FZD antibody with LRP6 binder; heavy/light chains SEQ ID NO: 5 and 6 (antibody)
heavy: EVQLVESGGGLVQPGGSLRLSCAASGFTFTSYYISWVRQAPGKGLEWVAEISPYSGSTYYADSVKGRFTISADTSKNTAYLQMNSLRAEDTAVYYCALRARPPIRLHPRGSVMDYWGQGTLVTVSSGGGGSGGGGSGGGGSEVQLVESGGGLVQPGGSLRLSCAASGFNISSSYIHWVRQAPGKGLEWVAYIYSSYGSTYYADSVKGRFTISADTSKNTAYLQMNSLRAEDTAVYYCARASWYALDYWGQGTLVTVSSASTKGPSVFPLAPSSKSTSGGTAALGCLVKDYFPEPVTVSWNSGALTSGVHTFPAVLQSSGLYSLSSVVTVPSSSLGTQTYICNVNHKPSNTKVDKKVEPKSCDKTHTCPPCPAPEAAGGPSVFLFPPKPKDTLMISRTPEVTCVVVDVSHEDPEVKFNWYVDGVEVHNAKTKPREEQYNSTYRVVSVLTVLHQDWLNGKEYKCKVSNKALGAPIEKTISKAKGQPREPQVYTLPPSREEMTKNQVSLTCLVKGFYPSDIAVEWESNGQPENNYKTTPPVLDSDGSFFLYSKLTVDKSRWQQGNVFSCSVMHEALHNHYTQKSLSLSPGK
light: DIQMTQSPSSLSASVGDRVTITCRASQDVSTAVAWYQQKPGKAPKLLIYSASFLYSGVPSRFSGSGSGTDFTLTISSLQPEDFATYYCQQSYTTPPTFGQGTKVEIKGGGGSGGGGSGGGGSDIQMTQSPSSLSASVGDRVTITCRASQSVSSAVAWYQQKPGKAPKLLIYSASSLYSGVPSRFSGSRSGTDFTLTISSLQPEDFATYYCQQYWYGVAPITFGQGTKVEIKRTVAAPSVFIFPPSDEQLKSGTASVVCLLNNFYPREAKVQWKVDNALQSGNSQESVTEQDSKDSTYSLSSTLTLSKADYEKHKVYACEVTHQGLSSPVTKSFNRGEC

How the values were obtained:
[1] = test system: mouse AT2 organoid cultures; experiment: Mouse AT2 cell organoid expansion, CellTiter-Glo assay; assay type: cell-based; settings: SWAP in combination with RSPO2; C59 present; FIG. 9
Method: (§1) In all of the AT2 cell organoid experiments, the Wnt signaling inhibitor, C59, was used to prevent endogenous secretion of Wnt ligands. […] AT2 cell organoid growth was assessed with the CellTiter Glo assay.

[2] = test system: human AT2 cell organoid; experiment: Human AT2 organoid size (diameter, microscopy); assay type: cell-based; settings: in the absence of RSPO; for human AT2 cell organoid growth as organoid size (diameter): C59 present, FIG. 6; for numbers of organoids and organoid size by microscopy: FIG. 8
[3] = test system: human AT2 cell organoid; experiment: Human AT2 cell organoid growth, CellTiter Glo assay; assay type: cell-based; settings: for effectiveness on human AT2 organoid expansion versus Chir99021: 10 nM concentration; for effectiveness on human AT2 organoid expansion versus Chir99021 / human AT2 organoid culture outgrowth/viability (CellTiter Glo): in the absence of RSPO, FIG. 8; for human AT2 organoid culture outgrowth/viability (CellTiter Glo): SWAP alone; for self-renewal and expansion of human AT2 cells: summary of organoid results
Method: For ex vivo studies, 3D organoid cultures (see, e.g., Zacharias, W. et al. (2018) Nature 555:251-257 and Barkauskas et al. (2017) Development 144:986-997) were constructed by combining primary human lung fibroblasts from healthy, pulmonary fibrosis, or COPD patients with alveolar epithelial cells (AT2 and AEP cells) from patients. Organoids were cultured in SAGM medium with growth factor free Matrigel. The Wnt antagonist and agonist were added in a sequential or concurrent manner to determine the effect on the fibroblast/myofibroblast proliferation, matrix production, alveolar epithelial cell proliferation and AT1/AT2 cell fate trans-differentiation. Alveolar organoids can also be cultured directly from human distal lung cells including purified AT2 cells (Kobayashi et al., (2020) supra).
as §1

[4] = test system: acute bleomycin mouse model; experiment: Bleomycin-induced acute lung injury (fibrosis) mouse model; assay type: in vivo; settings: agent alone
From the text: The acute lung injury (single bleomycin treatment; FIG. 1) and chronic intermittent/low dose bleomycin mouse models (FIG. 2) were used to determine the therapeutic effects of Wnt antagonist and agonist (administered concurrently or sequentially or individually) in combination with or without anti-fibrotic drugs (e.g., pirfenidone and nintedanib) to assess effects on anti-fibrotic and improved respiratory functions (see, e.g., Degryse, A. et al. (2010) Am J Physiol Lung Cell Mol Physiol. 299:442-52). Improvement of fibrosis was observed upon treatment with a WNT agonist, SWAP5 (see, e.g., FIG. 7, FIG. 10). Specifically, bleomycin was administered intratracheally to the mice at day 0, and animals were treated twice weekly with an agonist approach—combination of SWAP5 (FZD1,2,5,7,8 multi-FZD-specific SWAP) and RSPO2 (combo)—for two weeks starting at day 7 until termination at day 21. […] Improvement of fibrosis was also observed upon treatment with a Wnt agonist or the Wnt signaling enhancer RSPO2 alone (FIG. 10).

Molecule	expansion of mouse AT2 organoid cultures (CellTiter-Glo) [1]	human AT2 cell organoid growth as organoid size (diameter) [2]	numbers of organoids and organoid size by microscopy [2]	effectiveness on human AT2 organoid expansion versus Chir99021 [3]	human AT2 organoid culture outgrowth/viability (CellTiter Glo) ([3]; C59 present)	self-renewal and expansion of human AT2 cells [3]	percentage of lung area affected by fibrosis ([4]; dosed four times between week 1 and week 3, vs anti-GFP, FIGS. 10-11)	fibrosis score (Modified Ashcroft) ([4]; dosed four times between week 1 and week 3, vs anti-GFP, FIGS. 10-12)	percent of ACTA2 in the lung ([4]; FIG. 11D)	immune cell infiltration / inflammation (H&E based pathology scores) ([4]; FIG. 11E)	IL6 in lung tissue (Meso Scale Discovery) ([4]; FIG. 11F)	IL1B in lung tissue (Meso Scale Discovery) ([4]; FIG. 11G)	GRO/CXCL1 in lung tissue (Meso Scale Discovery) ([4]; FIG. 11H)	cytokine levels ([4]; lung tissue, FIG. 11)	human AT2 cell organoid growth (CellTiter Glo), compared with Chir99021 ([3]; SWAP in combination with RSPO1, C59 present, FIGS. 5A and 5B)
B1	led to the expansion of mouse AT2 organoid cultures	expand AT2 organoids	increased numbers of organoids and organoid size	more effective than the small molecule Wnt pathway activator, Chir99021	induced human AT2 organoid culture outgrowth/viability as assessed by the CellTiter Glo assay in a concentration-dependent manner; also recorded: induce human AT2 cell organoid expansion alone (in the absence of RSPO) in a dose-dependent manner	promotes the self-renewal and expansion of human AT2 cells	reduced the fibrosis score, the percentage of lung affected, immune cell infiltration, and cytokine levels in the acute bleomycin mouse model in a dose-dependent manner; also recorded: reduce the area of the lung that is fibrotic	reduced the fibrosis score, the percentage of lung affected, immune cell infiltration, and cytokine levels in the acute bleomycin mouse model in a dose-dependent manner; also recorded: lower the severity of fibrosis	reduction of fibrosis	reduced the fibrosis score, the percentage of lung affected, immune cell infiltration, and cytokine levels in the acute bleomycin mouse model in a dose-dependent manner; also recorded: reduction in inflammation	reduction in cytokines	reduction in cytokines	reduction in cytokines	reduced the fibrosis score, the percentage of lung affected, immune cell infiltration, and cytokine levels in the acute bleomycin mouse model in a dose-dependent manner	–
B2	led to the expansion of mouse AT2 organoid cultures	–	–	–	–	promotes the self-renewal and expansion of human AT2 cells	–	–	–	–	–	–	–	–	enhancement of human AT2 cell organoid growth that surpassed the growth observed upon treatment with the small molecule Wnt signaling activator, Chir99021; also recorded: more effective than the small molecule, CHIR99021
B3	led to the expansion of mouse AT2 organoid cultures	expand AT2 organoids	increased numbers of organoids and organoid size	more effective than the small molecule Wnt pathway activator, Chir99021	induced human AT2 organoid culture outgrowth/viability as assessed by the CellTiter Glo assay in a concentration-dependent manner; also recorded: induce human AT2 cell organoid expansion alone (in the absence of RSPO) in a dose-dependent manner	promotes the self-renewal and expansion of human AT2 cells	–	–	–	–	–	–	–	–	–
